From PMC4191430 (Nucleic Acids Research, 2014)

Target: T1, HA-Fbxl5 (human (cDNA from A549 cells), UniProt Q9UKA1 1-691)
T1 sequence (looked up): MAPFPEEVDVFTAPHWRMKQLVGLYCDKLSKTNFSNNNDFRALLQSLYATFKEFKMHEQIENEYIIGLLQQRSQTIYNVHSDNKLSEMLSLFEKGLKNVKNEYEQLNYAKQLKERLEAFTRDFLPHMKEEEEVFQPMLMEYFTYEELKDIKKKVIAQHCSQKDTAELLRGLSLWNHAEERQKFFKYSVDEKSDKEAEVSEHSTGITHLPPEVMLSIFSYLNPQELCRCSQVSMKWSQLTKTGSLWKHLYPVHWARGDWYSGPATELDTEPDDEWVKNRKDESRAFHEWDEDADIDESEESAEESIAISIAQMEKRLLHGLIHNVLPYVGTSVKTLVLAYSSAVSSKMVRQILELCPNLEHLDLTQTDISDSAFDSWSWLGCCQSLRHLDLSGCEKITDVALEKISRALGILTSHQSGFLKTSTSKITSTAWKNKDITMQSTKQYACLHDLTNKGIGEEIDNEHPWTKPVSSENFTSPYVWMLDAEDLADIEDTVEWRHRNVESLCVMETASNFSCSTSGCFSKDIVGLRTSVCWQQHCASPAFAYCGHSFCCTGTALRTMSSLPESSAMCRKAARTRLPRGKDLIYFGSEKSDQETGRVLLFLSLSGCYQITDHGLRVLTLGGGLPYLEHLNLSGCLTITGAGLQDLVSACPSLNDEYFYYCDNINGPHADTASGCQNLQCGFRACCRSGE
Assay: pull-down

B1: GST-hSSB1 (natural protein, human (cDNA from A549 cells), UniProt Q9BQ15 1-211, looked up)
chain: MTTETFVKDIKPGLKNLNLIFIVLETGRVTKTKDGHEVRTCKVADKTGSINISVWDDVGNLIQPGDIIRLTKGYASVFKGCLTLYTGRGGDLQKIGEFCMVYSEVPNFSEPNPEYSTQQAPNKAVQNDSNPSASQPTTGPSAASPASENQNGNGLSAPPGPGGGPHPPHTPSHPPSTRITRSQPNHTPAGPPGPSSNPVSNGKETRRSSKR
Does B1 bind?
Result: binds
